From US6001988, “High affinity nucleic acid ligands to lectins” (NeXstar Pharmaceuticals, Inc.)

Columns and labels:
L-selectin (LS-Rg) [1] = target: T1, L-selectin (LS-Rg) (Homo sapiens, UniProt P14151 P14151:39-332); test: filter; room temp; 1.6 nM at 37 C; conditions: tags: human IgG2 Fc fusion (provided by A. Varki); label: 32P
T1 chain: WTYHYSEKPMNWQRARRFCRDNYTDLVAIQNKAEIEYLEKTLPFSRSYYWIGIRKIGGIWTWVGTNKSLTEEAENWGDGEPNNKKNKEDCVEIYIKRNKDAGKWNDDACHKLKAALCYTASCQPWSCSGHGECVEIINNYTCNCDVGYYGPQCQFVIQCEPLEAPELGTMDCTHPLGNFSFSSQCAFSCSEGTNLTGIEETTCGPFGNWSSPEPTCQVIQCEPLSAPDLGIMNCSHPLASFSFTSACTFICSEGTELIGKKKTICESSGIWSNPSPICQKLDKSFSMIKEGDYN

L-selectin (LS-Rg) [2] = target: T1, L-selectin (LS-Rg); test: filter; room temp; 380 pM at 37 C; table prints SEQ 155, Table XII and text give 133; conditions: tags: human IgG2 Fc fusion (provided by A. Varki); label: 32P; hairpin
L-selectin (LS-Rg) [3] = target: T1, L-selectin (LS-Rg); test: filter; room temp; 260 pM at 37 C; conditions: tags: human IgG2 Fc fusion (provided by A. Varki); label: 32P; hairpin
P-selectin (PS-Rg) [4] = target: T2, P-selectin (PS-Rg) (Homo sapiens, UniProt P16109 P16109:42-321); test: filter; room temp, Ca/Mg buffer; conditions: tags: lectin, EGF and first two CRD domains fused to human IgG1 Fc (provided by A. Varki); chain copies: 2 (dimeric Fc chimera, inferred)
T2 chain: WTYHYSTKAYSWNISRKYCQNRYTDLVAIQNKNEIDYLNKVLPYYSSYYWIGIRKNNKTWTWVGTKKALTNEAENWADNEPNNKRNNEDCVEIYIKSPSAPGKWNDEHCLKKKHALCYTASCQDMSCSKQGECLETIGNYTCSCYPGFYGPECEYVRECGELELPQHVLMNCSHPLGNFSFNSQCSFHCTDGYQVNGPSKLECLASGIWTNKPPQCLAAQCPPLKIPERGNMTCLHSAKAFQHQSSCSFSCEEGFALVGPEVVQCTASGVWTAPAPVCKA
Protocol: (§1) RNA was reverse transcribed into cDNA by AMV reverse transcriptase at 48° C. for 60 min in 50 mM Tris-Cl pH (8.3), 60 mM NaCl, 6 mM Mg(OAc)_2, 10 mM DTT, 100 pmol DNA primer, 0.4 mM each of dNTPs, and 0.4 unit/µl AMV RT. […] C) Nitrocellulose Filter Partitioning As described in SELEX Patent Applications, the nitrocellulose filter partitioning method was used to determine the affinity of RNA ligands for WGA and for other proteins. Filter discs (nitrocellulose/cellulose acetate mixed matrix, 0.45 µm pore size, Millipore; or pure nitrocellulose, 0.45 µm pore size, Bio-Rad) were placed on a vacuum manifold and washed with 4 ml of HBSS buffer under vacuum. Reaction mixtures, containing ^32P labeled RNA pools and unlabeled WGA, were incubated in HBSS for 10 min at room temperature, filtered, and then immediately washed with 4 ml HBSS. The filters were air-dried and counted in a Beckman LS6500 liquid scintillation counter without fluor. WGA is a homodimer, molecular weight 43.2 kD, with 4 GlcNAc binding sites per dimer. For affinity calculations, we assume one RNA ligand binding site per monomer (two per dimer). The monomer concentration is defined as 2 times the dimer concentration. The equilibrium dissociation constant, K_d, for an RNA pool or specific ligand that binds monophasically is given by the equation $$K_d=[P_f][R_f]/[RP]$$
(§2) The affinity of representative cloned ligands for LS-Rg, ES-Rg, PS-Rg, CD22β-Rg and WGA was determined by nitrocellulose partitioning and the results shown in Table XIV. The ligands are highly specific for L-selectin.
(§3) *Kds were determined at room temperature.

E-selectin (ES-Rg) [5] = target: T3, E-selectin (ES-Rg) (Homo sapiens, UniProt P16581 P16581:22-556); test: filter; room temp, Ca/Mg buffer; conditions: tags: extracellular domain fused to human IgG1 Fc (provided by A. Varki); chain copies: 2 (dimeric Fc chimera, inferred)
T3 chain: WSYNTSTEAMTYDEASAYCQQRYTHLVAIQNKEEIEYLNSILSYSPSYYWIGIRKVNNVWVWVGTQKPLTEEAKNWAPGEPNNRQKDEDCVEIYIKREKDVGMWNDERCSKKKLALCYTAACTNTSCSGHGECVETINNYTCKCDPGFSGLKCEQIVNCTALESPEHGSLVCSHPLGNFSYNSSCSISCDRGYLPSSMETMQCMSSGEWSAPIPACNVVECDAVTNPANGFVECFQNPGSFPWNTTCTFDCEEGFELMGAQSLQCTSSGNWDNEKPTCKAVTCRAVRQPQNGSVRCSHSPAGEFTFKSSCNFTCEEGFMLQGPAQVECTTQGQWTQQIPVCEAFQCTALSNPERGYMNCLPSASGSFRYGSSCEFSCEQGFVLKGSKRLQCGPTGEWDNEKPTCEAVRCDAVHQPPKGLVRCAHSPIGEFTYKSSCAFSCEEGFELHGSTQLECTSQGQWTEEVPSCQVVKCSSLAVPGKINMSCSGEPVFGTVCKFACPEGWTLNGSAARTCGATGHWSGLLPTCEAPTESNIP
Protocol: as §1, §2, §3

L-selectin (LS-Rg) [6] = target: T1, L-selectin (LS-Rg); test: filter; room temp; 3.7 nM at 37 C; conditions: tags: human IgG2 Fc fusion (provided by A. Varki); label: 32P; hairpin
L-selectin (LS-Rg) [7] = target: T1, L-selectin (LS-Rg); test: filter; room temp; 8.5 nM at 37 C; conditions: tags: human IgG2 Fc fusion (provided by A. Varki); label: 32P; hairpin
L-selectin (LS-Rg) [8] = target: T1, L-selectin (LS-Rg); test: filter; room temp; 1.2 nM at 37 C; Table XIV prints 110 nM; conditions: tags: human IgG2 Fc fusion (provided by A. Varki); label: 32P; hairpin
L-selectin (LS-Rg) [9] = target: T1, L-selectin (LS-Rg); test: filter; room temp; 2.0 nM at 37 C; conditions: tags: human IgG2 Fc fusion (provided by A. Varki); label: 32P; hairpin
L-selectin (LS-Rg) [10] = target: T1, L-selectin (LS-Rg); test: filter; room temp; 970 pM at 37 C; conditions: tags: human IgG2 Fc fusion (provided by A. Varki); label: 32P; hairpin
L-selectin (LS-Rg) [11] = target: T1, L-selectin (LS-Rg); test: filter; room temp, Ca/Mg; 160 pM at 37 C; conditions: tags: human IgG2 Fc fusion (provided by A. Varki); label: 32P; hairpin
P-selectin (PS-Rg) [12] = target: T2, P-selectin (PS-Rg); test: filter; room temp; conditions: tags: human IgG1 Fc fusion (provided by A. Varki); chain copies: 2; label: 32P; hairpin
Protocol: as §1, with “The equilibrium dissociation constant, K_d, for an RNA pool or specific ligand that binds monophasically is given by the equation $$K_d=[P_f][R_f]/[RP]$$” left out
(§4) The affinity of representative cloned ligands for LS-Rg, ES-Rg, PS-Rg, CD22β-Rg and WGA was determined by nitrocellulose partitioning and the results shown in Table XIV. […]
as §3

E-selectin (ES-Rg) [13] = target: T3, E-selectin (ES-Rg); test: filter; room temp; conditions: tags: human IgG1 Fc fusion (provided by A. Varki); chain copies: 2; label: 32P; hairpin
Protocol: as §1, with “The equilibrium dissociation constant, K_d, for an RNA pool or specific ligand that binds monophasically is given by the equation $$K_d=[P_f][R_f]/[RP]$$” left out
as §4, §3

L-selectin (LS-Rg) [14] = target: T1, L-selectin (LS-Rg); test: filter; room temp; 3.4 nM at 37 C; conditions: tags: human IgG2 Fc fusion (provided by A. Varki); label: 32P
L-selectin (LS-Rg) [15] = target: T1, L-selectin (LS-Rg); test: filter; room temp; 1.0 nM at 37 C; conditions: tags: human IgG2 Fc fusion (provided by A. Varki); label: 32P; hairpin
L-selectin (LS-Rg) [16] = target: T1, L-selectin (LS-Rg); test: filter; room temp; 370 pM at 37 C; conditions: tags: human IgG2 Fc fusion (provided by A. Varki); label: 32P

B1: 239 (ssDNA)
DNA: CTACCTACGATCTGACTAGCCCACAGACAATCGCAGTCCCCGTGTAGCTCTGGGTGTCTGCTTACTCTCATGTAGTTCC
Work on B1 yielded a Kd (L-selectin (LS-Rg) [1]) of 0.17 nM.

B2: 208 (ssDNA)
DNA: CTACCTACGATCTGACTAGCCACGTTTCAAGGGGTTACACGAAACGATTCACTCCTTGGCGCTTACTCTCATGTAGTTCC
B2 was tested, and the Kd (L-selectin (LS-Rg) [2]) was 0.11 nM.

B3: 230 (ssDNA)
DNA: CTACCTACGATCTGACTAGCTGCACACCTGAGGGTTACAAGGCGCTAGACGTAACCTCTCGCTTACTCTCATGTAGTTCC
Work on B3 yielded a Kd (L-selectin (LS-Rg) [3]) of 0.057 nM, a Kd (P-selectin (PS-Rg) [4]) of 600 nM and a Kd (E-selectin (ES-Rg) [5]) of 19 nM.

B4: 204 (ssDNA)
DNA: CTACCTACGATCTGACTAGCGGAACACGTGAGGTTTACAAGGCACTCGACGTAAACACTTGCTTACTCTCATGTAGTTCC
Work on B4 yielded a Kd (L-selectin (LS-Rg) [6]) of 0.1 nM, a Kd (P-selectin (PS-Rg) [4]) of 2900 nM and a Kd (E-selectin (ES-Rg) [5]) of 1500 nM.

B5: 108 (ssDNA)
DNA: CTACCTACGATCTGACTAGCGAGTAGCCAAGGCGTTAGACGGAGGGGGAATGTGAGCACAGCTTACTCTCATGTAGTTCC
Work on B5 yielded a Kd (L-selectin (LS-Rg) [7]) of 0.16 nM.

B6: 201 (ssDNA)
DNA: CTACCTACGATCTGACTAGCCAAGGTAACCAGTACAAGGTGCTAAACGTAATGGCTTCGGCTTACTCTCATGTAGTTCC
For B6, the Kd (P-selectin (PS-Rg) [4]) was 1000 nM, the Kd (E-selectin (ES-Rg) [5]) was 37 nM and the Kd (L-selectin (LS-Rg) [8]) was 0.11 nM.

B7: 182 (ssDNA)
DNA: CTACCTACGATCTGACTAGCTAGTGCTCCACGTATTCAAGGTGCTAAACGAAGACGGCCTGCTTACTCTCATGTAGTTCC
In the case of B7, the Kd (L-selectin (LS-Rg) [9]) is reported as 0.13 nM.

B8: 193 (ssDNA)
DNA: CTACCTACGATCTGACTAGCCCAGGAGCACAGTACAAGGTGTTAAACGTAATGTCTGGTGCTTACTCTCATGTAGTTCC
B8 was tested, and the Kd (L-selectin (LS-Rg) [10]) was 0.088 nM.

B9: 227 (ssDNA)
DNA: CTACCTACGATCTGACTAGCCGGACATGAGCGTTACAAGGTGCTAAACGTAACGTACTTGCTTACTCTCATGTAGTTCC
B9 gave a Kd (L-selectin (LS-Rg) [11]) of 0.043 nM, a Kd (P-selectin (PS-Rg) [12]) of 560 nM and a Kd (E-selectin (ES-Rg) [13]) of 33 nM.

B10: 196 (ssDNA)
DNA: CTACCTACGATCTGACTAGCTGGCGGTACGGGCCGTGCACCCACTTACCTGGGAAGTGAGCTTACTCTCATGTAGTTCC
B10 gave a Kd (L-selectin (LS-Rg) [14]) of 0.13 nM, a Kd (P-selectin (PS-Rg) [4]) of 3400 nM and a Kd (E-selectin (ES-Rg) [5]) of 50 nM.

B11: 183 (ssDNA)
DNA: CTACCTACGATCTGACTAGCGGCATCCCTGAGTCATTACAAGGTTCTTAACGTAATGTACGCTTACTCTCATGTAGTTCC
B11 gave a Kd (L-selectin (LS-Rg) [15]) of 0.17 nM.

B12: 174 (ssDNA)
DNA: CTACCTACGATCTGACTAGCCATTCACCATGGCCCCTTCCTACGTATGTTCTGCGGGTGGCTTACTCTCATGTAGTTCC
B12 showed a Kd (L-selectin (LS-Rg) [16]) of 0.043 nM, a Kd (P-selectin (PS-Rg) [4]) of 380 nM and a Kd (E-selectin (ES-Rg) [5]) of 28 nM.
